Our source for the EC50 values is patent publication US20240392023A1 (ABCLON, published 2024).

By EC50 is commonly meant the concentration needed to bring the measured effect to its halfway point.

The chains are these.
T1: CD30-His (Sino Biological, 10777-H08H) (UniProt P28908 19-379)
T1 construct: Bought protein; also called CD30-His protein; CD30 protein; not shown: His tag
T1 sequence (looked up): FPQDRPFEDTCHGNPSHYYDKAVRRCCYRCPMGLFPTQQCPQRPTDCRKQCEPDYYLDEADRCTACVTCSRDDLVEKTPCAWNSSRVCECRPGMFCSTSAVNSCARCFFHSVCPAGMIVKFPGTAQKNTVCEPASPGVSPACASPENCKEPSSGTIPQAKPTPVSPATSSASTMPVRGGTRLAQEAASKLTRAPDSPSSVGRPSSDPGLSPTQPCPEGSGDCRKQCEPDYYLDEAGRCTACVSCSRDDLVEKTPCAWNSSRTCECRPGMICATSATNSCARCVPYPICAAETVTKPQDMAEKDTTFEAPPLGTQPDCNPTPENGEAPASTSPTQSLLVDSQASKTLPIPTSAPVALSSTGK

B1: T1-2 anti-CD30 scFv-Fc (Fc fusion)
scFv: EVQLLESGGGLVQPGGSLRLSCAASGFTFSGYGMSWVRQAPGKGLEWVSYISGYSYYTYYADSVKGRFTFSRDNSKNTLYLQMNSLRAEDTAVYYCARYDGNGFDYWGQGTLVTVSSGGGGSGGGGSGGGGSQSVLTQPPSASGTPGQRVTISCSGSSSNIGSNYVYWYQQLPGTAPKLLIYRNNQRPSGVPDRFSGSKSGTSASLAISGLRSEDEADYYCAADSSDDSYVFGGGTKLTVLG
notes: Cloned in an scFv-Fc-conjugated form (Zb-Fc); detected with anti-human IgG Fc; also called Zb-Fc form; not shown: Fc of the scFv-Fc (Zb-Fc) form and any junction to it
B2: T1-9 anti-CD30 scFv-Fc (Fc fusion)
scFv: EVQLLESGGGLVQPGGSLRLSCAASGFTFSYYGMSWVRQAPGKGLEWVSGIGSYSSYTYYADSVKGRFTISRDNSKNTLYLQMNSLRAEDTAVYYCARYASSPDAYFDYWGQGTLVTVSSGGGGSGGGGSGGGGSQSVLTQPPSASGTPGQRVTISCSGSSSNIGSNYVYWYQQLPGTAPKLLIYRNNQRPSGVPGRFSGSKSGTSASLAISGLRSEDEADYYCAAYYNYNYVFGGGTKLTVLG
notes: scFv-Fc-conjugated form (Zb-Fc); also called Zb-Fc form; not shown: Fc of the scFv-Fc (Zb-Fc) form and its junction
B3: T1-7 anti-CD30 scFv-Fc (Fc fusion)
scFv: EVQLLESGGGLVQPGGSLRLSCAASGFTFSGYGMSWVRQAPGKGLEWVSYISSGSYYTYYADSVKGRFTISRDNSKNTLYLQMNSLRAEDTAVYYCARYRGDNDYYGYFDYWGQGTLVTVSSGGGGSGGGGSGGGGSQSVLTQPPSASGTPGQRVTISCSCSSSNIGNNAVSWYQQLPGTAPKLLIYRNNQRPSGVPDRFSGSKSGTSASLAISGLRSEDEADYYCAADYGSDYVFGGGTKLTVLG
notes: scFv-Fc-conjugated form (Zb-Fc); also called Zb-Fc form; not shown: Fc of the scFv-Fc (Zb-Fc) form and any junction to it
B4: T1-36 anti-CD30 scFv-Fc (Fc fusion)
scFv: EVQLLESGGGLVQPGGSLRLSCAASGFTFSYYYMSWVRQAPGKGLEWVSYIGGGGSGTYYADSVKGRFTISRDNSKNTLYLQMNSLRAEDTAVYYCARGPYYGYFDYWGQGTLVTVSSGGGGSGGGGSGGGGSQSVLTQPPSASGTPGQRVTISCSGSSSNIGSNYVYWYQQLPGTAPKLLIYRNNQRPSGVPDRFSGSKSGTSASLAISGLRSEDEADYYCAAYPSYDSYVFGGGTKLTVLG
notes: as for B2
B5: T1-10 anti-CD30 scFv-Fc (Fc fusion)
scFv: EVQLLESGGGLVQPGGSLRLSCAASGFTFSSYGMSWVRQAPGKGLEWVSYISGGSYYTYYADSVKGRFTISRDNSKNTLYLQMNSLRAEDTAVYYCARYGYGYYDGSFDYWGQGTLVTVSSGGGGSGGGGSGGGGSQSVLTQPPSASGTPGQRVTISCSGSSSNIGSNYVYWYQQLPGTAPKLLIYRNNQRPSGVPDRFSGSKSGTSASLAISGLRSEDEADYYCAADGPYNYVFGGGTKLTVLG
notes: as for B2
B6: T1-8 anti-CD30 scFv-Fc (Fc fusion)
scFv: EVQLLESGGGLVQPGGSLRLSCAASGFTFSSYMSWVRQAPGKGLEWVSSIGSGYYSTYYADSVKGRFTISRDNSKNTLYLQMNSLRAEDTAVYYCARDYYGGFDYWGQGTLVTVSSGGGGSGGGGSGGGGSQSVLTQPPSASGTPGQRVTISCSGSSSNIGSNYVYWYQQLPGTAPKLLIYRNNQRPSGVPDRFSGSKSGTSASLAISGLRSEDEADYYCAAYDSYSYVFGGGTKLTVLG
notes: scFv-Fc-conjugated form (Zb-Fc); also called Zb-Fc form; not shown: Human Fc of the scFv-Fc (Zb-Fc) form and its junction to the scFv
B7: T1-117 anti-CD30 scFv-Fc (Fc fusion)
scFv: EVQLLESGGGLVQPGGSLRLSCAASGFTFSYYGMSWVRQAPGKGLEWVSYISGYSSYTYYADSVKGRFTISRDNSKNTLYLQMNSLRAEDTAVYYCARYNDSGSFDYWGQGTLVTVSSGGGGSGGGGSGGGGSQSVLTQPPSASGTPGQRVTISCSGSSSNIGSNYVYWYQQLPGTAPKLLIYRNNQRPSGVPDRFSGSKSGTSASLAISGLRSEDEADYYCAADAGNRYVFGGGTKLTVLG
notes: as for B2
B8: T1-23 anti-CD30 scFv-Fc (Fc fusion)
scFv: EVQLLESGGGLVQPGGSLRLSCAASGFTFSSYSMSWVRQAPGKGLEWVSGIGYPYYTYYADSVKGRFTISRDNSKNTLYLQMNSLRAEDTAVYYCARYYYDYGFDYWGQGTLVTVSSGGGGSGGGGSGGGGSQSVLTQPPSASGTPGQRVTISCSGSSSNIGSNYVYWYQQLPGTAPKLLIYRNNQRPSGVPDRFSGSKSGTSASLAISGLRSEDEADYYCAAYRSYDYVFGGGTKLTVLG
notes: as for B2

For the assay, the target named is T1, CD30-His (Sino Biological, 10777-H08H). As to the kind of experiment: ELISA, scFv-Fc titrated on plate coated with 1 µg/mL CD30-His. How it is done:
For ELISA, the eleven purified anti-CD30 scFv-Fc forms and the positive control HRS scFV-Fc were 1/3 diluted for 10 points starting from 10 μg/mL in a plate coated with 1 μg/mL CD30-His protein. After treatment with a secondary antibody (anti-hIgG-Fc-HRP (Invitrogen, H10007)), a color was developed with TMB. OD₄₅₀ values were read using an ELISA reader, and EC₅₀ values were measured by means of Graph prism (FIG. 1, Table 3).
A general note: In an ELISA, binding on a coated surface is turned into a signal by an enzyme label.
The molecule B1 returned a half-maximal effective concentration (EC50) of 0.06 µg/mL.
Turning to B2, the concentration giving a half-maximal response (EC50) was determined as 0.026 µg/mL.
Regarding B3, the 50% effective concentration (EC50) was found to be 0.048 µg/mL.
For the molecule B4, the EC50 came out at 0.021 µg/mL. This EC50 is about 2.3-fold lower than that of the molecule before.
For B5 the value was 0.031 µg/mL; for B6, 0.051 µg/mL.
Then B7, with 0.157 µg/mL; and B8, with 0.023 µg/mL.
